{"source": "paper PMC3795256", "biological_target": "recombinant human Prx4 (human) (UniProt Q13162)", "sequence (Q13162 38-271)": "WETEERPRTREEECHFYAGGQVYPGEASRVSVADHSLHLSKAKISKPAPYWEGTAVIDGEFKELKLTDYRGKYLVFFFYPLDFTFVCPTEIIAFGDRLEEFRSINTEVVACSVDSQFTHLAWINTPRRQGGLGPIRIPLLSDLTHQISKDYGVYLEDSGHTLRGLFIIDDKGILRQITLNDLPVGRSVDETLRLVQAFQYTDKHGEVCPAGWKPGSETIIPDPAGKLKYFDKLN", "assay": "SPR; ProteOn XPR36; Ero1α (WT) or Prx4 amine-coupled to a GLC chip, PDI or ERp44 as analyte (0.444–36 μM); 25 °C; 20 mM HEPES-NaOH pH 7.4, 150 mM NaCl, 0.001% Tween, 2 mM EDTA; two-state model", "data": [{"substance": "recombinant human PDI, P07237 18-508 (natural protein; other documents disagree on this pair)", "values": [{"measurement": "Kd", "value": 10.6, "unit": "µM"}]}]}
